How the values were obtained:
[1] = molecular target: T1, Fructose-bisphosphate aldolase A (encoded by ALDOA) (UniProt P04075)
T1 sequence: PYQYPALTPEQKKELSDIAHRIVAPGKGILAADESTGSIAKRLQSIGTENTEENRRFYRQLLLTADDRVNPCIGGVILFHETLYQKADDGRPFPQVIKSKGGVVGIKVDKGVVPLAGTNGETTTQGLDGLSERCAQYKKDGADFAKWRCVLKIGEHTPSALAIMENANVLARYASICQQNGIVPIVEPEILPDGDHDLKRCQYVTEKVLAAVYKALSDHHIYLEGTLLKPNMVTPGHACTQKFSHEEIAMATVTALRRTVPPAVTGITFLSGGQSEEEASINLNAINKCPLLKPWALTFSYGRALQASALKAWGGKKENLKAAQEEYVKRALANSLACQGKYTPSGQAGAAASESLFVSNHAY

[2] = molecular target: T2, Phosphoglycerate kinase 1 (encoded by PGK1) (UniProt P00558)
T2 sequence: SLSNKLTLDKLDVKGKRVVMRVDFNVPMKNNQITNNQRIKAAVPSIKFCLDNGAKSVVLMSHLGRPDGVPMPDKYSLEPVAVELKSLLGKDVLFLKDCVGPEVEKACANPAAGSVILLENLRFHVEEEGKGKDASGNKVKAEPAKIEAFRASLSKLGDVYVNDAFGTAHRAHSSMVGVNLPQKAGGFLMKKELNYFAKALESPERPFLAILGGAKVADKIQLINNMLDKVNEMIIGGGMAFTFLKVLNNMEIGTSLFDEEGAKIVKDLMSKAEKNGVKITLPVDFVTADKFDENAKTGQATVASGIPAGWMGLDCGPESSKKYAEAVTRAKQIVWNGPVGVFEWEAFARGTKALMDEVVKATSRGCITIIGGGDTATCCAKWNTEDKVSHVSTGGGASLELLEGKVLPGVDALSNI

[3] = molecular target: Alpha-enolase (encoded by ENO1) (UniProt P06733)
Alpha-enolase (encoded by ENO1), sequence (P06733 2-434): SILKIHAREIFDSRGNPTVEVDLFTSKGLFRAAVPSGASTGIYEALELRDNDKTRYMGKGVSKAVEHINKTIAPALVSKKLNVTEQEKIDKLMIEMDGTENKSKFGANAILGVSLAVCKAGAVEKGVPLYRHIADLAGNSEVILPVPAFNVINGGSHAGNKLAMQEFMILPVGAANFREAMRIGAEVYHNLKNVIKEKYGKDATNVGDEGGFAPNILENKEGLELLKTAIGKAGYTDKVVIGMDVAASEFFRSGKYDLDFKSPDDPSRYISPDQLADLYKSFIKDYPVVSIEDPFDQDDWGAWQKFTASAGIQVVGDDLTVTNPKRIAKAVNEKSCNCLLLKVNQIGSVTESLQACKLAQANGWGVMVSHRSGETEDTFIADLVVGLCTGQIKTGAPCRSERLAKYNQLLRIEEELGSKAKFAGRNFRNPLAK

[4] = molecular target: Glyceraldehyde-3-phosphate dehydrogenase (encoded by GAPDH) (UniProt P04406)
Glyceraldehyde-3-phosphate dehydrogenase (encoded by GAPDH), sequence (P04406 2-335): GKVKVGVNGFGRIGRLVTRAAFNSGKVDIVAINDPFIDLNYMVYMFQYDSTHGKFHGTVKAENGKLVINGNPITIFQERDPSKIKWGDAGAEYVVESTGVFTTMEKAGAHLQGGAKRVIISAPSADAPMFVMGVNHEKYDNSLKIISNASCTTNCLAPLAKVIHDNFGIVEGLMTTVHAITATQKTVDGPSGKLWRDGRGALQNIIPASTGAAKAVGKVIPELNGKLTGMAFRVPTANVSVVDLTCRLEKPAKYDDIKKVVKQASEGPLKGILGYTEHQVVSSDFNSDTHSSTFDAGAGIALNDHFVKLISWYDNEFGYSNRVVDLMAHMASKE

Sirtuin 2 (SIRT2), human
acetylation level (IP with specific antibody, western blot with anti-acetyl-Lys, and the reverse) [1]: forced expression of SIRT2 in hESCs prominently deacetylated all four enzymes tested (aldolase, PGK1, enolase, and GAPDH)
acetylation level after SIRT2 knockdown in hDFs (IP, western blot with anti-acetyl-Lys) [1]: Acetylation levels of aldolase, enolase, PGK1 and GAPDH were substantially increased in SIRT2 KD fibroblasts
acetylation level (IP with specific antibody, western blot with anti-acetyl-Lys, and the reverse) [2]: forced expression of SIRT2 in hESCs prominently deacetylated all four enzymes tested (aldolase, PGK1, enolase, and GAPDH)
acetylation level after SIRT2 knockdown in hDFs (IP, western blot with anti-acetyl-Lys) [2]: Acetylation levels of aldolase, enolase, PGK1 and GAPDH were substantially increased in SIRT2 KD fibroblasts
acetylation level (IP with specific antibody, western blot with anti-acetyl-Lys, and the reverse) [3]: forced expression of SIRT2 in hESCs prominently deacetylated all four enzymes tested (aldolase, PGK1, enolase, and GAPDH)
acetylation level after SIRT2 knockdown in hDFs (IP, western blot with anti-acetyl-Lys) [3]: Acetylation levels of aldolase, enolase, PGK1 and GAPDH were substantially increased in SIRT2 KD fibroblasts
acetylation level (IP with specific antibody, western blot with anti-acetyl-Lys, and the reverse) [4]: forced expression of SIRT2 in hESCs prominently deacetylated all four enzymes tested (aldolase, PGK1, enolase, and GAPDH)
acetylation level after SIRT2 knockdown in hDFs (IP, western blot with anti-acetyl-Lys) [4]: Acetylation levels of aldolase, enolase, PGK1 and GAPDH were substantially increased in SIRT2 KD fibroblasts

— patent US20190376046
